In general, Kd refers to the free concentration of one partner at which half of the binding sites on the other are occupied at equilibrium, for simple one-to-one binding. As a reminder, the koff is the first-order rate constant of dissociation. For orientation: kon means the second-order rate constant of association. The IC50 is the midpoint of a concentration-inhibition curve.

These results are taken from patent US20210347908A1 (ELPISCIENCE SUZHOU BIOPHARMA, published 2021).

Positions count from the first letter of the chain named.

The target of assay [1] is T1, 6×His tagged human SIRPα v2 ECD recombinant protein (human). As to the kind of experiment: SPR (Biacore), antibody captured. The procedure: (§1) Anti-SIRPα chimeric antibodies were characterized for binding affinity against human SIRPα v1, human SIRPα v2 and C57BL/6 mouse SIRPα using Biacore (GE). Briefly the antibodies to be tested were captured to CM5 chip (GE) using Human Antibody Capture Kit (GE). The antigens of 6×His tagged human SIRPα v1, human SIRPα v2 and C57BL/6 mouse SIRPα ECD recombinant proteins were serially diluted for multiple doses and injected at 30 μl/min for 180 s. Buffer flow was maintained for dissociation of 400 s. 3 M MgCl₂ was used for chip regeneration. The association and dissociation curves were fit with 1:1 binding model, and the Ka/Kd/KD values for each antibody were calculated.
T1 sequence (chain, as listed by the source): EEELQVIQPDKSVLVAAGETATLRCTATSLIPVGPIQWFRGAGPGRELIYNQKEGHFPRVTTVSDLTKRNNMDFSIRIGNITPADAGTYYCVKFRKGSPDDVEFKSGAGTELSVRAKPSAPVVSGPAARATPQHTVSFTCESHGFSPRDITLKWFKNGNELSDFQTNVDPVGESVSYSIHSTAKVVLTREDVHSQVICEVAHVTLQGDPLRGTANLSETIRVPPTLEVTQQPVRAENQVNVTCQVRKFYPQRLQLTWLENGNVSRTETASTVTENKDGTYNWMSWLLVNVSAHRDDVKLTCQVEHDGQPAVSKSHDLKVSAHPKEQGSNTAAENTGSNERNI
On the technique in general: Surface plasmon resonance follows binding to a sensor surface in real time, without labels.

The target of assay [2] is T2, 6×His tagged C57BL/6 mouse SIRPα ECD recombinant protein (mouse (C57BL/6), UniProt P97797 32-373).
T2 construct: extracellular domain; bought; also called mSIRPα (C57BL/6); mouse SIRPα (C57BL/6) ECD
T2 sequence: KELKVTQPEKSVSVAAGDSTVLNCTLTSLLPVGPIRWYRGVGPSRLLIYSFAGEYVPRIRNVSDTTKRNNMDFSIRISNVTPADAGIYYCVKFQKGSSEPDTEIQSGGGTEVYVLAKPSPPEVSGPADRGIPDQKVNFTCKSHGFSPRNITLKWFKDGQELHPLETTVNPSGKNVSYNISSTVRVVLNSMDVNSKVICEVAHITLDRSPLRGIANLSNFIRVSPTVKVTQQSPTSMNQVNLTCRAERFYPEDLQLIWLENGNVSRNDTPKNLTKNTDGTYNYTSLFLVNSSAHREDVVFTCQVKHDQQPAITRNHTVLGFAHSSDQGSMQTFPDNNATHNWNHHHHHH
Description: SPR (Biacore), antibody captured. The procedure: as §1

Assay [3] concerns the target T3, 6×His tagged human SIRPα v1 ECD recombinant protein (human, UniProt P78324 31-373).
T3 construct: extracellular domain; bought; also called hSIRPα V1 (SPR antigen)
Description: SPR (Biacore), antibody captured. The procedure:
as §1

The target in assay [4] is T4, chimeric SIRPα of B-hSIRPA mice (IgV domain of human SIRPα); IgC1/C2, transmembrane and intracellular domains … (human; mouse, UniProt P78324 31-149; P97797 151-513, limits assumed).
T4 construct: domain: IgV domain;domain: IgC1/C2, transmembrane and intracellular domains; whole, on cells (mCD11b+ mF4/80+ spleen monocytes); also called B-hSIRPA mice derived primary monocytes
T4 sequence (P78324 other isoform, or with tags, fused parts or gaps mutant limits assumed): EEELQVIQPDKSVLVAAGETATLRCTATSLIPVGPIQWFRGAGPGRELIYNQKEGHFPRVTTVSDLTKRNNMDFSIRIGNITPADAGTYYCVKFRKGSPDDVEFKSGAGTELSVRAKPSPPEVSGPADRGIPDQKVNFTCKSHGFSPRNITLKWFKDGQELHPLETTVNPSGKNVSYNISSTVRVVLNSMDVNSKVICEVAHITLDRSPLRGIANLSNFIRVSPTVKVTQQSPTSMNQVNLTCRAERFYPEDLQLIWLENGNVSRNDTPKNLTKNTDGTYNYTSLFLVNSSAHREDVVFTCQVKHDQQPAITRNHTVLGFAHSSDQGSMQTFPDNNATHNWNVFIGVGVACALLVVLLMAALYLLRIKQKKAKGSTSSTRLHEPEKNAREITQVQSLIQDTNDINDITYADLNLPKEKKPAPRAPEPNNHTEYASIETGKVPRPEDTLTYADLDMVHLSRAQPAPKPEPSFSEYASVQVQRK
Description: FACS on spleen cells of B-hSIRPA mice, anti-human IgG secondary antibody, gated on mCD11b/mF4/80 double positive monocytes. The method, then: The humanized mice express a chimeric SIRPα, comprised of IgV domain of human SIRPα and IgC1/C2, transmembrane and intracellular domains of mouse SIRPα. Briefly spleen cells of B-hSIRPA mice were harvested and incubated with anti-SIRPα chimeric antibodies at 4° C. for 1 hour. After washing, fluorescence labeled anti-human IgG 2nd antibody (Life Technologies) was added and incubated at 4° C. for 1 hour. […] Anti-SIRPα positive staining population in mCD11b and mF4/80 double positive subset was calculated.

Assay [5] addresses T1, 6×His tagged human SIRPα v2 ECD …. As to the kind of experiment: SPR (Biacore). The method, then: as §1
The target of assay [6] is T3, 6×His tagged human SIRPα v1 ECD …. As to the kind of experiment: SPR (Biacore). The method, then:
as §1

Assay [7] concerns the target T5, biotin labeled soluble human SIRPα v1 ECD recombinant protein (human, UniProt P78324 31-373, biotin labeled).
T5 construct: extracellular domain
As to the kind of experiment: competitive ELISA; competitor 022. The procedure: (§2) Competitive ELISA assay was used for epitope binning of 9 functional antibodies. Briefly excessive competitor antibody and biotin labeled soluble human SIRPα v1 ECD recombinant protein were co-incubated with ELISA microplate coated antibody. After washing, HRP-SA was added and incubated at 37° C. for 1 hour. Then, […] of TMB solution (Biotechnology) was added. After incubation for 15 minutes at room temperature, the reaction was stopped by the addition of […] of 1N HCl. OD 450 nm was read. Competition ratio was calculated. The antibodies that can compete each other for binding to SIRPα have the similar binding epitope.
(ELISA stands for enzyme-linked immunosorbent assay.)

Assay [8] has as its target T5, biotin labeled soluble human SIRPα v1 …. Description: competitive ELISA; competitor 032. The procedure:
as §2

Assay [9] shares this target. As to the kind of experiment: competitive ELISA; competitor 074. The procedure: as §2
The target is the same in assay [10]. As to the kind of experiment: competitive ELISA, biotin-SIRPα v1 ECD to coated CD47 ECD. The procedure:
Competitive ELISA assay was used to determine whether the purified hybridoma antibodies can block CD47 and SIRPα interaction or CD47 and SIRPγ interaction. Briefly, for CD47 and SIRPα interaction blocking activity detection, antibody and biotin labeled soluble human SIRPα v1 ECD recombinant protein were co-incubated with ELISA microplate coated human CD47 ECD recombinant protein.
For CD47 and SIRPγ interaction blocking activity detection, antibody and biotin labeled soluble human CD47 ECD recombinant protein were co-incubated with ELISA microplate coated human SIRPγ ECD recombinant protein. After washing, horseradish peroxidase labeled streptavidin (HRP-SA, Sigma) was added and incubated at 37° C. for 1 hour. Then, 100 μl/well of TMB solution (Biotechnology) was added. After incubation for 15 minutes at room temperature, the reaction was stopped by the addition of 50 μl of 1N HCl. OD 450 nm was read. Blocking ratio and IC₅₀ was calculated. In comparison with other known anti-SIRPα antibodies, 022, 050, 055, and 074 cannot block CD47 and SIRPα interaction. In particular, all of the antibodies of the invention cannot block CD47 and SIRPγ interaction.

For assay [11] the target is unchanged. As to the kind of experiment: competitive ELISA; competitor 035. The procedure: as §2

T3 sequence (P78324 other isoform, or with tags, fused parts or gaps): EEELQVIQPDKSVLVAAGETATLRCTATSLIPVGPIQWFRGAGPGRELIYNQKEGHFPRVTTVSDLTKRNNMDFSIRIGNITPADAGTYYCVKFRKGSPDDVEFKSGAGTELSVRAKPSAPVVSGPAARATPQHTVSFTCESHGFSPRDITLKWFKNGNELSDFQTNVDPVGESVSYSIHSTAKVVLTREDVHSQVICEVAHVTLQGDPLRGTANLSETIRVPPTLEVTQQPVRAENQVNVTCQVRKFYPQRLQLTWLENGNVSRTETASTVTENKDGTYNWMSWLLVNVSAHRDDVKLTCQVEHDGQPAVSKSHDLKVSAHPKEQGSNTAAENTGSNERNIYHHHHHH
T5 sequence (P78324 31-373): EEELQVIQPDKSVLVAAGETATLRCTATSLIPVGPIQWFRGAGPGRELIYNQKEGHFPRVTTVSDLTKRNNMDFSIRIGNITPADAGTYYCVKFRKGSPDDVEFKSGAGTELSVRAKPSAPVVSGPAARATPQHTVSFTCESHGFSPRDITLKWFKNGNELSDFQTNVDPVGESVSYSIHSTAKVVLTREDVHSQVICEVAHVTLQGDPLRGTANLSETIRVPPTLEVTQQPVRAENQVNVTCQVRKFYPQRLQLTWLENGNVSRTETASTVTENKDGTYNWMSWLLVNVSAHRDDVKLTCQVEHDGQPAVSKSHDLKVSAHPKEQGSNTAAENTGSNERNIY

B1: chimeric antibody 074c (antibody, V domains shown)
VH: QVQLQQPRAELVKPGASVMLSCKASGYTFSSYWIHWVRQGPGQGLEWIGLIHPNSGNTDCSETFKNKATLTVDTSSSTAYMQLSSLASEDSAVYYCARDGASYDWFVHWGQGTLVTVSA
VL: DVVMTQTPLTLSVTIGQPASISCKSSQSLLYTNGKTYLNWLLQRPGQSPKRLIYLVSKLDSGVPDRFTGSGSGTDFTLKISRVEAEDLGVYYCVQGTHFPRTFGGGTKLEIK
As to B1, the Kd came out at 25.2 nM in assay [1], 4.4 nM in [3], 25.2 nM in [5] and 4.4 nM in assay [6]. Also, the koff in [1] is 0.000515 s⁻¹; in assay [3] it was 0.000229 s⁻¹. The kon in assay [1] is 20400 M⁻¹ s⁻¹; in assay [3], 52100 M⁻¹ s⁻¹. Further, the binding result in assay [2] and in assay [4] was “no binding” throughout. The “Positive Staining Population (% in mCD11b, mF4/80 double positive subset)” value in [4] turned out to be 0.14%.

B2: chimeric antibody 022c (antibody, V domains shown)
VH: QIQLVQSGPELKKPGETVKISCKASGYTFTDYAMHWVKQAPGKGLKWMGWKNTETGESTYAEDFKGRFAFFLETSASTAYLQINNVKNEDTATYFCARGGYGSNYVMDYWGQGTSVIVSS
VL: DIQMTQSSSSFSVSLGDRVTITCKASEDIYNRLAWYQQKPGNAPRLLISGATSLETGVPSRFSGSGSGKDYTLSITSLQTEDVATYYCQQYWNSPRTFGGGTKLEIK
As for B2, the Kd in [1] turned out to be 25.6 nM; in assay [3], 5.9 nM; in assay [5], 25.6 nM; in assay [6] it was 5.9 nM. Besides, the koff in assay [1] is 0.00144 s⁻¹; in assay [3], 0.00074 s⁻¹. For the same molecule, the kon amounted to 56100 M⁻¹ s⁻¹ in assay [1] and 125000 M⁻¹ s⁻¹ in assay [3]. Besides, the binding result in assay [2] and in [4] was “no binding” in each case.

B3: Antibody 001 (hybridoma antibody) (antibody, V domains shown)
VH: EVKLEESGGGLVQPGGSMKLSCVASGFTFRNYWMNWVRQSPERGLEWIAEISLKSNTYATHYAESVKGRFAISRDGSKSSFYLQMNDLRAEDTGIYYCTTFTKVVADWHLDVWGAGTTVTVSS
VL: DVLMTQTPLSLPVSLGDQASISCRSSQNIVHSNGNTYLEWYLQKPGQSPKLLIYKVSNRFSGVPDRFSGSGSGTDFTLRISRVEAEDLGVYYCFQGSHVPFTFGSGTKLEIK
notes: mouse hybridoma antibody
With B3, the “% Competition” value in assay [7] was -19%; in assay [8], 96%; in [9] it was 5%; in assay [11] it was 96%. Also, the IC50 in assay [10] was determined as 1.4 nM.

B4: Antibody 002 (hybridoma antibody) (antibody, V domains shown)
VH: B3 VH with K19I, S52T, G76D, A90P
VL: B3 VL with V56I, K112Q
notes: mouse hybridoma antibody
For the molecule B4, the “% Competition” value was -5% in assay [7], 92% in assay [8], -10% in assay [9] and 93% in assay [11]. Moreover, the IC50 in [10] is 1.3 nM.

B5: Antibody 032 (hybridoma antibody) (antibody, V domains shown)
VH: B3 VH with K3R, A24V, S52T, G76D, A90P
VL: B3 VL with S14N
notes: mouse hybridoma antibody
Turning to B5, the “% Competition” value worked out at 1% in assay [7], 94% in assay [8], 6% in assay [9] and 91% in assay [11]. Moreover, the IC50 in assay [10] was 0.2 nM.

B6: reference antibody 29-AM4-5 (antibody, V domains shown)
VH: EVQLVESGGGLVQPGGSLRLSCAASGFNISYYFIHWVRQAPGKGLEWVASVYSSFGYTYYADSVKGRFTISADTSKNTAYLQMNSLRAEDTAVYYCARFTFPGLFDGFFGAYLGSLDYWGQGTLVTVSS
VL: DIQMTQSPSSLSASVGDRVTITCRASQSVSSAVAWYQQKPGKAPKLLIYSASSLYSGVPSRFSGSRSGTDFTLTISSLQPEDFATYYCQQAVNWVGALVTFGQGTKVEIK
Turning to B6, the “% Competition” value in assay [7] is 8%; in assay [8] it was 97%; in [9], 4%; in assay [11], 98%. Further, in assay [10], the IC50 was 1.4 nM.

B7: chimeric antibody 055c (antibody, V domains shown)
VH: EVKLVESEGGLVQPGDSMKLSCTASGFTFSDYFMTWIRQVPEKGLEWIANVNYDGRSTYYLDSLKSRFIISRDNANNILYLQMSSLKSEDTATYYCAREGSQTPLYAVDYWGQGTSVTVSS
VL: DIVMTQSQKFMSTTVGDRVNITCKASQNVGTAVAWYQQKPGQSPKLLIYLASNRYTGVPDRFTGSGSGTDFTLTVSDMRSEDLADYFCQQYSIYPFTFGSGTKLEIK
With B7, the Kd in assay [1] was determined as 28.5 nM; in [3], 16.6 nM; in [5] it was 28.5 nM; in assay [6], 16.6 nM. The koff was determined as 0.00138 s⁻¹ in assay [1] and 0.00141 s⁻¹ in assay [3]. For the same molecule, the values for the kon in assay [1] and in assay [3] were 48300 M⁻¹ s⁻¹ and 85100 M⁻¹ s⁻¹, respectively. Besides, the binding result in assay [2] and in assay [4] was “no binding” each time. For the same molecule, the “Positive Staining Population (% in mCD11b, mF4/80 double positive subset)” value in [4] worked out at 0.13%.

B8: Antibody 035 (hybridoma antibody) (antibody, V domains shown)
VH: QIQLVQSGPELRKPGETVKISCKASGYSFTNYAMNWVKQAPGKVLKWMGFINTYTGEPTYADDFKGRFAFSLETSASTAYLQINNLKNEDTATYFCTRTRGYYDFDGGAFDYWGQGTSLTVSS
VL: DIVMTQSQKFMSTSIGDRVSVTCKASQNVGTHLAWYQQKPGQSPKALIFSASYRYIGVPDRFTGSGSGTDFTLTITNVQSEDLAEYFCQQYNTYPLTFGAGTKLELK
notes: mouse hybridoma antibody
Take B8: the “% Competition” value in assay [7] was -1%; in assay [8] it was 89%; in [9], 6%; in assay [11], 93%. Further, the IC50 in [10] was found to be 4.9 nM.

B9: reference antibody HEFLB (antibody, V domains shown)
VH: EVQLVQSGAEVKKPGESLRISCKASGYSFTSYWVHWVRQMPGKGLEWMGNIDPSDSDTHYSPSFQGHVTLSVDKSISTAYLQLSSLKASDTAMYYCVRGGTGTLAYFAYWGQGTLVTVSS
VL: DVVMTQSPLSLPVTLGQPASISCRSSQSLVHSYGNTYLYWFQQRPGQSPRLLIYRVSNRFSGVPDRFSGSGSGTDFTLKISRVEAEDVGVYYCFQGTHVPYTFGGGTKVEIK
In the case of B9, the “% Competition” value in [7] was 4%; in assay [8], 91%; in assay [9] it was 2%; in assay [11] it was 51%. Also, the IC50 in assay [10] came to 0.5 nM.
